According to article PMC6317593, “Determining the amphipol distribution within membrane-protein fibre samples using small-angle neutron scattering” (Acta Crystallographica. Section D, Structural Biology, 2018):

Target: the molecule itself
Experiment: SEC; Superose 12 column, 20 mM sodium phosphate pH 7.9, 100 mM NaCl, 0.5 ml/min; OmpF in amphipol A8-35 at 1:10 (w:w), detergent-free buffer; oligomer: trimer

B1: Outer membrane protein F (OmpF) (natural protein, E. coli, UniProt P02931 23-362, looked up)
chain: AEIYNKDGNKVDLYGKAVGLHYFSKGNGENSYGGNGDMTYARLGFKGETQINSDLTGYGQWEYNFQGNNSEGADAQTGNKTRLAFAGLKYADVGSFDYGRNYGVVYDALGYTDMLPEFGGDTAYSDDFFVGRVGGVATYRNSNFFGLVDGLNFAVQYLGKNERDTARRSNGDGVGGSISYEYEGFGIVGAYGAADRTNLQEAQPLGNGKKAEQWATGLKYDANNIYLAANYGETRNATPITNKFTNTSGFANKTQDVLLVAQYQFDFGLRPSIAYTKSKAKDVEGIGDVDLVNYFEVGATYYFNKNMSTYVDYIINQIDSDNKLGVGSDDTVAVGIVYQF
modifications: deuterated (cells grown in 85% D2O minimal medium)
notes: Outer membrane protein F (OmpF), the major porin of the E. coli outer membrane, produced from E. coli BE3000 cells; trimeric, each monomer a 16-stranded beta-barrel; Native protein purified from the outer membrane of strain BE3000; Held in amphipol A8-35 (not a protein) in all experiments; also called dOmpF; deuterated OmpF; source: E. coli BE3000 cells grown in 85% D2O minimal medium, purified …
**Q.** For B1, which “stoichiometry N” value is on record?
**A.** Its value is 3.
